Laboratory results from article PMC12641570, “Surface‐modified protein crowders influence mutant huntingtin exon 1 aggregation via crowding effects, crowder association, and crowder solution stability” (Protein Science : A Publication of the Protein Society, 2025).

Target: T1, bovine serum albumin cationized by reaction with ethylenediamine, net surface charge +78e (BSA +78e) (bovine, UniProt P02769 25-607, reacted with ethylenediamine; net surface charge +78e (±3e))
T1 construct: bovine serum albumin (BSA), 66 kDa protein; Chemically surface-modified; DLS radius is 16 nm, from which the authors infer oligomers; also called positive BSA (+78e); cationized BSA; source: BSA modified by reaction with ethylenediamine (published procedure); chemicals bought: Sigma‐Aldrich unless mentioned otherwise
Assay: MST; NanoTemper Monolith; about 10 μM mHttex1‐VC (target, mCherry fluorescence read) with different concentrations of BSA (ligand); within 1 h after cleaving MBP; apparent
Conditions: both partners purified

Kd: > 1000 µM
B1: mutant huntingtin exon 1 (45Q) fused to mVenus/mCherry (mHttex1‐VC), after cleavage of MBP (domain or fragment)
chain: MATLEKLMKAFESLKSFQQQQQQQQQQQQQQQQQQQQQQQQQQQQQQQQQQQQQQQQQQQQQPPPPPPPPPPPQLPQPPPQAQPLLPQPQPPPPPPPPPPGPAVAEEPLHRP
